# Experimental data as given in the supplement of paper PMC10065799, “High-throughput profiling of sequence recognition by tyrosine kinases and SH2 domains using bacterial peptide display” (eLife, 2023).
# What was measured:
# FGFR3 = FGFR3 (UniProt P22607); assay: phosphorylation enrichment, bacterial display (enrichment ratio); higher = better substrate or ligand; peptides without Tyr show the background
# Hck = Hck (UniProt P08631); assay: as above
# EPHB1 = EPHB1 (UniProt P54762); assay: as above
# Jak2 = Jak2 (UniProt O60674); assay: as above
# Fes = Fes (UniProt P07332); assay: as above
# Fyn = Fyn (UniProt P06241); assay: as above
# AncSZ = assay: as above
# c-Abl (mouse) = assay: as above
# c-Src = assay: as above
# FGFR1 = FGFR1 (UniProt P11362); assay: as above
# EPHB2 = EPHB2 (UniProt P29323); assay: as above
# MERTK = MERTK (UniProt Q12866); assay: as above
# Fer (mouse) = assay: as above
# Grb2 SH2 = Grb2 SH2 (UniProt P62993); assay: SH2 binding enrichment of the phosphorylated peptide, bacterial display (enrichment ratio); higher = better substrate or ligand; peptides without Tyr show the background
# c-Src SH2 = assay: as above
# SHP2-C SH2 = assay: as above
# 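Throughout, for SH2 binding enrichment of the phosphorylated peptide, bacterial display: peptide library displayed on the E. coli surface as eCPX fusions, selected cells deep-sequenced, score is each peptide's frequency after selection divided by its frequency in the input.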
# 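Throughout, for phosphorylation enrichment, bacterial display: 11-residue human phosphosite peptides and single-mutation variants displayed on the E. coli surface, counted by deep sequencing, each peptide's frequency after selection divided by its frequency in the unselected input library; frequency after pTyr selection over input frequency; kinase dosed for 20-30% of maximal phosphorylation in three min.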
# Sequence of FGFR1 (P11362 whole entry, looked up): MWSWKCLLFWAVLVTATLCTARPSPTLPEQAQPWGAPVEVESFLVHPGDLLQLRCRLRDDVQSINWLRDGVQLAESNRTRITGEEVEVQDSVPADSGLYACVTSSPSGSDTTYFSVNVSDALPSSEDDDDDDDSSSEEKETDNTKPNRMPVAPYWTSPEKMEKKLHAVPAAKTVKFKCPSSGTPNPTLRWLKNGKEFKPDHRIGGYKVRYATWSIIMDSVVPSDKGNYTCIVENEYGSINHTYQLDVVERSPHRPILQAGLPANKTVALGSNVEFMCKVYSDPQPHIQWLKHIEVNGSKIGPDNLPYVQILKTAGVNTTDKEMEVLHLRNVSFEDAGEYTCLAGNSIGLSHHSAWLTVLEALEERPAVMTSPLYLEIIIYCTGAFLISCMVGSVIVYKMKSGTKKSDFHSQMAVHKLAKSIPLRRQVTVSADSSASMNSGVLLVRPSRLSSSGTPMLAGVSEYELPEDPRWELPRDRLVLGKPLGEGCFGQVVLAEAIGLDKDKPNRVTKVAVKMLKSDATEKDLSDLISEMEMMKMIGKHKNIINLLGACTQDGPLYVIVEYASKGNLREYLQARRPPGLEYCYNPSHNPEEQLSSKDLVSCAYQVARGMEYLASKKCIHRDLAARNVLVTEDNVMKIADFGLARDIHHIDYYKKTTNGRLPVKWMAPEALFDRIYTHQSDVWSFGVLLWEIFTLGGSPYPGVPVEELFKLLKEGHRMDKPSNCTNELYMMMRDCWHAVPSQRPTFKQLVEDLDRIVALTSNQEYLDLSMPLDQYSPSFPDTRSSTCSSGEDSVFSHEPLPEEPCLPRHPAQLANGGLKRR
# Sequence of Hck (P08631 whole entry, looked up): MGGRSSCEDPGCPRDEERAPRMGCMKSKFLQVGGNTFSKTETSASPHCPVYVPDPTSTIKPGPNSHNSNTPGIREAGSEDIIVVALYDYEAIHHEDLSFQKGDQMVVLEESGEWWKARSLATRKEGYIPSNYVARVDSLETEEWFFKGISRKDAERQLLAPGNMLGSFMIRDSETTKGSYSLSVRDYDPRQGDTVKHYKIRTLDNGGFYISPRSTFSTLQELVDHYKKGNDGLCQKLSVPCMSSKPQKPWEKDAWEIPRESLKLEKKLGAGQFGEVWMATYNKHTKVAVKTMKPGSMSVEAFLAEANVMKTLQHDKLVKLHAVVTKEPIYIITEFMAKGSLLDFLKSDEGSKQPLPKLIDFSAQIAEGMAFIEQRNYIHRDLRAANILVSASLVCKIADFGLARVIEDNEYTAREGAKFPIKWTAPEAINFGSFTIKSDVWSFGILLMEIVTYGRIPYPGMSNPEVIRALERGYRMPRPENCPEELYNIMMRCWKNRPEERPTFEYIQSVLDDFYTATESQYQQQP
# Sequence of Grb2 SH2 (P62993 whole entry, looked up): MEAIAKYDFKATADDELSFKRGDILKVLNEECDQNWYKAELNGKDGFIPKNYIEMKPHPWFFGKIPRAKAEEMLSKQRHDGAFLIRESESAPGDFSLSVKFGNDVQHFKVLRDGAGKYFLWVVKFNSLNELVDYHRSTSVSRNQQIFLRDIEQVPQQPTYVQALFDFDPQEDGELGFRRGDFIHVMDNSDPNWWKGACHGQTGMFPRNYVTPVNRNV
# Sequence of EPHB2 (P29323 whole entry, looked up): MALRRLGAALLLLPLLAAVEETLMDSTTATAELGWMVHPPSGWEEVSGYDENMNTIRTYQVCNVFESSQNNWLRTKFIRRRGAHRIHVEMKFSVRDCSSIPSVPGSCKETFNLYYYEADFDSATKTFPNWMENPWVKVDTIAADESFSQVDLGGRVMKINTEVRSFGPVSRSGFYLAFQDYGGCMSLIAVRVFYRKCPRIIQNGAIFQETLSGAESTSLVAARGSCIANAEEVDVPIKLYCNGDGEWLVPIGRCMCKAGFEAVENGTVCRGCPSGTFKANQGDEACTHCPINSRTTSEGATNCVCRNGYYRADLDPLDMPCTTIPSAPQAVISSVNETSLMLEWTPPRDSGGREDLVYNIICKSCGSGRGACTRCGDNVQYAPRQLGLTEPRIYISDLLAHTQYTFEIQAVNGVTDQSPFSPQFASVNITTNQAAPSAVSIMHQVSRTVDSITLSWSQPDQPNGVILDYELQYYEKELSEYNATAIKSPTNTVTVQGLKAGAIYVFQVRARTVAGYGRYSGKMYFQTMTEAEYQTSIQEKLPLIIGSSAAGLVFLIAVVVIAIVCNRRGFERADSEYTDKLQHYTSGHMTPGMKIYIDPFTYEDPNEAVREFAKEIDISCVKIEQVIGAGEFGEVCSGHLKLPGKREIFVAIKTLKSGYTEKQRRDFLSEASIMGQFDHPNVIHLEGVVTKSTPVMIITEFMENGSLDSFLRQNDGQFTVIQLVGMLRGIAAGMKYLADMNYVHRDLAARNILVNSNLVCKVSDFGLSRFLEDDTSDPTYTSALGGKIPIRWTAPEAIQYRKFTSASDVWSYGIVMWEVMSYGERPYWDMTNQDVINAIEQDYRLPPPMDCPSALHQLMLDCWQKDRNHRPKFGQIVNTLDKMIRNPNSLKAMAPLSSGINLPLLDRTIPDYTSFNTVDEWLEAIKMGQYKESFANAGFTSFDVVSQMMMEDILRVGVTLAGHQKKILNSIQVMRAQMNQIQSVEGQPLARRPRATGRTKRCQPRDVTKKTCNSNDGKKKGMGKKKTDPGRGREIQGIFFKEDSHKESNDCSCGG
# Sequence of FGFR3 (P22607 whole entry, looked up): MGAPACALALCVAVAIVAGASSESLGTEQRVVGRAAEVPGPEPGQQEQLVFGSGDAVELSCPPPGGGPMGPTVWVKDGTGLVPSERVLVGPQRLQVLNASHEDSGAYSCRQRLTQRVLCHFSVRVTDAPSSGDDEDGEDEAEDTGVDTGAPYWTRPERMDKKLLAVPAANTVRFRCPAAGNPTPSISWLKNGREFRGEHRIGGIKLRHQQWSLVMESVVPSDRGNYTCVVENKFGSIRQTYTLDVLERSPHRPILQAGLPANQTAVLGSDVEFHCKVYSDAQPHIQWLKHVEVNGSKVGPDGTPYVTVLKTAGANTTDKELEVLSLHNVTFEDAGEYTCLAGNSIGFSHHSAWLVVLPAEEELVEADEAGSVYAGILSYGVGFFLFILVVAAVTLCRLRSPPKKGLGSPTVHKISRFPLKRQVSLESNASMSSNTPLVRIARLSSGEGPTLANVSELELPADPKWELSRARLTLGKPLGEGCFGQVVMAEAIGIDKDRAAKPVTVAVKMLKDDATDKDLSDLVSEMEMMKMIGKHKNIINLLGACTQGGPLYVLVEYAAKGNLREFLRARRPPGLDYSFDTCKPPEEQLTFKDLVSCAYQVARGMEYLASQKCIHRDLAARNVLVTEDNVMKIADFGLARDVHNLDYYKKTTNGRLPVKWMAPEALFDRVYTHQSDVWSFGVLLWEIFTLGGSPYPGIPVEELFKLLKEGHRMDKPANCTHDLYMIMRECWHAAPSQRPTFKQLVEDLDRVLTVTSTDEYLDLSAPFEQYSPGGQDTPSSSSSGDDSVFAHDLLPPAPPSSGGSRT
# Sequence of EPHB1 (P54762 whole entry, looked up): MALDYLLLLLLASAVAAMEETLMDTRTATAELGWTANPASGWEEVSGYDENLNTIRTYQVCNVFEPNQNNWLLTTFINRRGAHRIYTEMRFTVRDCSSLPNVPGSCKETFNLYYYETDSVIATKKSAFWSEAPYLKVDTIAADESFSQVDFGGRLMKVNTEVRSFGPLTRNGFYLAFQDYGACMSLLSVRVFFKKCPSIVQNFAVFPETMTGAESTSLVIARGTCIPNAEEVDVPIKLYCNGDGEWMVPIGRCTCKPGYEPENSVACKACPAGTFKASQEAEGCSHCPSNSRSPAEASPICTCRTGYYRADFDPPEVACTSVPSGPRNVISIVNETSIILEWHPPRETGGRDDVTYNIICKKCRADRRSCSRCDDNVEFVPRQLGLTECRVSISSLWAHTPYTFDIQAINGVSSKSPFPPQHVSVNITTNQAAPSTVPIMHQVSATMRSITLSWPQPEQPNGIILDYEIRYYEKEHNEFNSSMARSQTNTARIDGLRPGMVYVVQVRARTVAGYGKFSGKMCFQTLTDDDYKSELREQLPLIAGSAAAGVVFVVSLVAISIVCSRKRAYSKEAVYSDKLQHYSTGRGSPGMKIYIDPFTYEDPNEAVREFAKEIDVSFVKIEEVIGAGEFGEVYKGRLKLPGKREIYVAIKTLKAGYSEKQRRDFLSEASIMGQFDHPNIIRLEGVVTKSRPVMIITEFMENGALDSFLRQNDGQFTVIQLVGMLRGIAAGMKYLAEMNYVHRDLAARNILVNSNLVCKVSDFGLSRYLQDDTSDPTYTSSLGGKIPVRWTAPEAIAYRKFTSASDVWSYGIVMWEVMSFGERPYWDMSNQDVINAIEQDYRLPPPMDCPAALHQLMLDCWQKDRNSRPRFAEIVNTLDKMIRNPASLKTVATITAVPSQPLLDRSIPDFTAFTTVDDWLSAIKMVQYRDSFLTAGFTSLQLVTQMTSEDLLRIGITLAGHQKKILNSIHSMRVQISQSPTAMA
# Sequence of Fyn (P06241 whole entry, looked up): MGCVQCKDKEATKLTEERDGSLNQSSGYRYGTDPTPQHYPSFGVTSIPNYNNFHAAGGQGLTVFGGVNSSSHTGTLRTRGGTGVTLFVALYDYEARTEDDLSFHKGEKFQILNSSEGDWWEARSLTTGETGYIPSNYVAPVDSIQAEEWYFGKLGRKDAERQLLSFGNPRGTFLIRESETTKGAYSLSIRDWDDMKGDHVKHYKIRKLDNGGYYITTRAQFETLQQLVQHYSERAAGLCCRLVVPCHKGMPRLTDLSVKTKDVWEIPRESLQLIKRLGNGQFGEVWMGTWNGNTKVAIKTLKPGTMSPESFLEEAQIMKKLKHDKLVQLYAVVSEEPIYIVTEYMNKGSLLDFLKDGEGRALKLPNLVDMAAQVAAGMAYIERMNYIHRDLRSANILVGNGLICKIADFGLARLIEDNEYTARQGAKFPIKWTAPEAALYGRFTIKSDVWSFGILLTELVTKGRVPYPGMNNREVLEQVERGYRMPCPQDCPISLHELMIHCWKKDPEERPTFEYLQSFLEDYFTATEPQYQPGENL
Sequence,phosphorylation enrichment (FGFR3),phosphorylation enrichment (Hck),phosphorylation enrichment (EPHB1),phosphorylation enrichment (Jak2),phosphorylation enrichment (Fes),phosphorylation enrichment (Fyn),phosphorylation enrichment (AncSZ),phosphorylation enrichment (c-Abl (mouse)),phosphorylation enrichment (c-Src),phosphorylation enrichment (FGFR1),phosphorylation enrichment (EPHB2),phosphorylation enrichment (MERTK),phosphorylation enrichment (Fer (mouse)),SH2 binding enrichment (Grb2 SH2),SH2 binding enrichment (c-Src SH2),SH2 binding enrichment (SHP2-C SH2)
VDEVLYEDSSA [MTHFS_Y197_T202A],0.609,0.716,0.637,1.29,1.16,0.502,1.47,0.923,0.647,0.679,0.577,0.508,2.08,0.834,0.551,0.979
VDSIEYEVASQ [SLC7A7_Y7_T5I],0.729,0.567,0.594,1.36,1.18,0.491,1.22,0.821,0.466,0.451,0.618,0.545,0.464,0.793,0.452,0.741
VECRVYAEDPF [PCCA_Y401_YF],0.845,0.578,0.766,1.6,1.68,0.553,1.43,1.11,0.693,0.495,0.677,0.481,0.669,0.674,0.54,0.426
VEDHYYEGGIG [TKT_Y564],1.73,0.636,0.581,1.05,1.11,0.559,1.1,0.837,0.628,1.59,0.65,0.524,0.688,0.883,3.89,0.833
VEDQYYCVDCY [FHL1_Y208],10.3,1.46,1.02,1.86,1.48,2.34,5.02,1.1,2.77,12,0.754,3.19,1.11,1.35,1.42,1.47
VEKGSYSALRA [ABCC2_Y845_L849R],0.396,0.351,0.348,0.551,0.551,0.34,0.43,0.438,0.314,0.356,0.296,0.325,0.338,0.823,0.555,1.04
VFPIDYYFPPQ [AR_Y552_L548F],12.9,0.851,3.22,6.13,0.914,0.816,5.64,0.922,1.34,13.8,3.65,2.24,0.536,1.24,1.04,1.08
VKMLEYLGKDV [CASP5_Y74],0.453,0.491,0.422,0.591,0.726,0.454,1.07,0.57,0.337,0.375,0.651,0.504,0.413,0.662,0.389,0.77
VKMLLYTEVTR [GDI1_Y93],0.883,1.24,3,1.23,1.43,0.759,1.32,0.83,0.834,0.529,1.25,2.58,1.08,0.869,0.771,0.706
VKPENYWRLDI [VHL_Y175_R176W],0.895,0.443,0.814,1.39,1.15,0.381,1.13,0.839,0.377,0.783,0.61,0.588,0.441,0.902,0.586,0.876
VKYGAYINDFK [GLB1_Y488_N484K],0.463,0.379,0.455,0.573,0.791,0.568,0.691,0.605,0.566,0.363,0.46,0.381,0.353,7.46,2.57,1.06
VLDCHYPEDEV [C1QBP_Y188],0.88,0.629,0.589,1.3,1.27,0.464,1.22,0.919,0.571,0.596,0.725,0.556,0.632,1.01,0.468,0.929
VLNKGYRMVVN [HINT1_Y94_G89V],0.396,0.368,0.362,0.433,0.539,0.383,0.557,0.361,0.326,0.392,0.343,0.339,0.311,0.707,0.424,0.538
VLTSKYCGGGG [HBA1_Y141_R142C],0.577,0.467,0.474,0.634,0.772,0.429,0.603,0.747,0.354,0.384,0.419,0.391,0.394,0.884,0.545,0.804
VNKGGYFSVNL [C3orf33_Y164_S160N],0.603,0.411,0.553,1.23,1.05,0.456,0.832,0.688,0.398,0.599,0.411,0.412,0.395,0.648,1.4,0.725
VNKIFHPDFIV [LIG3_Y768_Y768H_YF],0.547,0.39,0.487,0.695,0.871,0.447,0.793,0.6,0.497,0.419,0.454,0.432,0.397,0.873,0.462,0.744
VNTTLYEKFTY [TEK_Y1108],0.648,4.55,1.92,0.804,0.879,3.69,0.983,0.908,3.87,0.483,1.13,4.25,5.72,0.764,3.14,0.826

Sequence,phosphorylation enrichment (FGFR3),phosphorylation enrichment (Hck),phosphorylation enrichment (EPHB1),phosphorylation enrichment (Jak2),phosphorylation enrichment (Fes),phosphorylation enrichment (Fyn),phosphorylation enrichment (AncSZ),phosphorylation enrichment (c-Abl (mouse)),phosphorylation enrichment (c-Src),phosphorylation enrichment (FGFR1),phosphorylation enrichment (EPHB2),phosphorylation enrichment (MERTK),phosphorylation enrichment (Fer (mouse)),SH2 binding enrichment (Grb2 SH2),SH2 binding enrichment (c-Src SH2),SH2 binding enrichment (SHP2-C SH2)
VQEDIYDEFVE [ALDH2_Y332],0.731,1.15,0.728,1.34,1.3,1.89,1.2,0.859,1.87,0.459,0.715,0.542,0.658,0.752,0.437,0.408
VRQQDYKKVEE [HADHA_Y283_V282D],0.442,0.482,0.517,0.564,0.604,0.417,0.783,0.423,0.43,0.514,0.561,0.419,0.376,1.02,0.414,0.532
VRSVDYVLFRS [FAM189B_Y361],1.4,0.528,0.825,0.583,0.831,0.455,1.06,0.516,0.403,2.09,0.534,0.44,0.544,1.13,0.648,1.12
VRTSKYRGGGG [HBA1_Y141_L137R],0.618,0.424,0.366,0.609,0.676,0.426,0.64,0.637,0.542,0.423,0.407,0.648,0.365,0.602,0.353,0.571
VSSSDYFSFVL [USP24_Y2138_Y2134S],10.5,2.49,4.7,8.84,1.66,5.34,3.42,4.78,7.49,12.3,3.25,4.39,1.1,0.715,0.52,0.679
VTPVMYTFDEF [COL10A1_Y623_G618V_YF],0.654,0.531,0.665,1.02,1.19,0.737,1.03,0.662,0.715,0.591,0.668,0.962,0.458,0.93,0.772,0.698
VTSLKYSTPPY [BRIP1_Y916_S919P],0.515,0.396,0.355,0.565,0.681,0.366,0.625,0.483,0.389,0.358,0.344,0.387,0.352,0.955,0.434,1.31
VTSLKYSTSPF [BRIP1_Y916_YF],0.689,0.464,0.469,0.711,0.695,0.433,0.605,0.482,0.403,0.435,0.507,0.412,0.408,1.09,0.455,0.664
VVRSLYEDLED [VHL_Y185_I180V],0.792,0.573,0.711,1.21,1.24,0.587,1.26,0.835,0.544,0.556,0.984,0.525,1.24,0.988,10.1,0.981
WAFNLYDINKD [KCNIP3_Y174],0.763,2.65,1.27,1.17,1.45,1.92,1.43,0.91,1.78,0.541,1.64,1.3,1.82,0.718,0.563,0.6
WEQELYSQLVY [WAS_Y102],7.23,8.84,11.8,1.35,2.69,9.39,2.3,1.55,7.33,8.38,16,9.2,15.7,0.98,0.811,0.589
WKEREYEVVRD [CPS1_Y634_I632R],0.684,0.586,1.36,0.949,1.12,0.599,1.26,0.594,0.506,0.554,2.29,0.478,0.573,0.954,6.04,0.67
WPLKWYVPECI [ZAP70_Y506_A507V],0.804,0.572,0.688,1.02,1.18,0.428,1.06,0.757,0.387,0.496,0.618,0.382,0.44,0.841,0.499,0.488
WQLEIYRASRP [ERCC4_Y594_R589W],0.702,0.491,0.567,0.911,1.22,0.492,1.27,0.997,0.45,0.375,0.628,0.521,0.471,0.717,0.599,0.546
WQQQSYLFSGI [CTNNB1_Y30_D32Y_YF],0.57,0.44,0.461,0.972,0.928,0.454,0.977,0.765,0.467,0.473,0.57,0.414,0.398,1.02,0.641,0.882
YAFQLYDLDRD [CHP2_Y123],1.55,1.73,1.69,0.969,1.17,2.66,1.24,0.768,3.19,1.89,0.765,2.83,1.12,0.879,1.58,2.55
